Measured values: paper PMC4200520

Legend:
[1] = biological target: TD4, minimal TACC domain (TD) fragment of XTACC3 (Xenopus); assay: SEC-MALS; TD4 with saturating concentrations of pCt; Superdex 200 10/300 GL, 20 mM Tris/HCl, 150 mM NaCl, 0.25 mM TCEP, pH 8.0
[2] = biological target: TD4, minimal TACC domain (TD) fragment of XTACC3 (Xenopus); assay: ITC; TD4 (10–20 μM) in the cell, peptide (400–500 μM) in the syringe; 25 °C; 20 mM HEPES pH 7.5, 150 mM NaCl, 0.25 mM TCEP; one-site model
[3] = biological target: TD4, minimal TACC domain (TD) fragment of XTACC3 (Xenopus); assay: SPR; TD4 (50 μg/ml) amine-coupled to a CM5 chip, peptides pCt or pCt_KD as analytes 10–250 μM; BIAcore X100, 20 °C, HBS (100 mM HEPES, 150 mM NaCl, 0.05% P20, pH 7.4); steady-state fit, single-site model

## STNIDDLKKRLERIKS [pCt, synthetic peptide of XMAP-Ct residues 46-61]
[1]
  stoichiometry N (pCt per TD4 dimer): 4
[2]
  Kd: 11 µM
  stoichiometry N: 0.5 TD4:pCt
[3]
  Kd: 30 µM
